Patent publication US20240174744A1 (SCIRHOM, published 2024)

How the values were obtained:
[1] = biological target: T1, hiR1-FL-WT-T7 (human iRhom1 full length wild type C-terminally tagged with 3 consecutive copies of the T7 … (human, UniProt Q96CC6 1-855)); assay: FACS on cells of the row human iR1 wild type, vs human iR2 wild type = 100%
T1 construct: also called human iRhom1 variant expressed by MEF-DKO-hiR1-FL-WT-T7 cells
T1 sequence: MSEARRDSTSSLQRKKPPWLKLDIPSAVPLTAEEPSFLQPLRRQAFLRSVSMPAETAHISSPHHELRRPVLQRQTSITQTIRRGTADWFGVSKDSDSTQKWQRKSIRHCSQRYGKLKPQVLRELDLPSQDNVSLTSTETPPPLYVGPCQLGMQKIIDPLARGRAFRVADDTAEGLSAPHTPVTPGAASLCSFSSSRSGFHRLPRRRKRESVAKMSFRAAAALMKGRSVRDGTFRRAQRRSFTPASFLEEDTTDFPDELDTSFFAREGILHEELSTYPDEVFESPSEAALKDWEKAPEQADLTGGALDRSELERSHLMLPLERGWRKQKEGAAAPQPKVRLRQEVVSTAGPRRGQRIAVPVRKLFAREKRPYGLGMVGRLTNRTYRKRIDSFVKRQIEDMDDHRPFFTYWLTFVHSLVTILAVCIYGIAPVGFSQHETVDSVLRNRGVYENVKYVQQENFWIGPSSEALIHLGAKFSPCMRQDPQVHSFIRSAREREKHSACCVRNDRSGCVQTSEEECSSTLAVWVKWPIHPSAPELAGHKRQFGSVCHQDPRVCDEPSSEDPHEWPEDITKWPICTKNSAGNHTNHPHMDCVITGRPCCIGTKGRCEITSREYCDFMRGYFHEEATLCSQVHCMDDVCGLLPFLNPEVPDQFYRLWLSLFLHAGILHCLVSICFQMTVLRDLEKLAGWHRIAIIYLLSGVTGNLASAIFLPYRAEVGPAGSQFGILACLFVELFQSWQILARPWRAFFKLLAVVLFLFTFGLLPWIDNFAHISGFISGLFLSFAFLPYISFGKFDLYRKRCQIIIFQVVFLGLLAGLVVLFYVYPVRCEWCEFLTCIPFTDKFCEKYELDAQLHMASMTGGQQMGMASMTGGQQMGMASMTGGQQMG

[2] = biological target: T2, miR2-FL-WT-FLAG (mouse iRhom2 full length wild type C-terminally tagged with the triple-FLAG epitope) (mouse, UniProt Q80WQ6 1-827); assay: FACS, MEF-DKO-miR2-FL-WT-FLAG cells
T2 construct: also called expressed by MEF-DKO-miR2-FL-WT-FLAG cells
T2 sequence: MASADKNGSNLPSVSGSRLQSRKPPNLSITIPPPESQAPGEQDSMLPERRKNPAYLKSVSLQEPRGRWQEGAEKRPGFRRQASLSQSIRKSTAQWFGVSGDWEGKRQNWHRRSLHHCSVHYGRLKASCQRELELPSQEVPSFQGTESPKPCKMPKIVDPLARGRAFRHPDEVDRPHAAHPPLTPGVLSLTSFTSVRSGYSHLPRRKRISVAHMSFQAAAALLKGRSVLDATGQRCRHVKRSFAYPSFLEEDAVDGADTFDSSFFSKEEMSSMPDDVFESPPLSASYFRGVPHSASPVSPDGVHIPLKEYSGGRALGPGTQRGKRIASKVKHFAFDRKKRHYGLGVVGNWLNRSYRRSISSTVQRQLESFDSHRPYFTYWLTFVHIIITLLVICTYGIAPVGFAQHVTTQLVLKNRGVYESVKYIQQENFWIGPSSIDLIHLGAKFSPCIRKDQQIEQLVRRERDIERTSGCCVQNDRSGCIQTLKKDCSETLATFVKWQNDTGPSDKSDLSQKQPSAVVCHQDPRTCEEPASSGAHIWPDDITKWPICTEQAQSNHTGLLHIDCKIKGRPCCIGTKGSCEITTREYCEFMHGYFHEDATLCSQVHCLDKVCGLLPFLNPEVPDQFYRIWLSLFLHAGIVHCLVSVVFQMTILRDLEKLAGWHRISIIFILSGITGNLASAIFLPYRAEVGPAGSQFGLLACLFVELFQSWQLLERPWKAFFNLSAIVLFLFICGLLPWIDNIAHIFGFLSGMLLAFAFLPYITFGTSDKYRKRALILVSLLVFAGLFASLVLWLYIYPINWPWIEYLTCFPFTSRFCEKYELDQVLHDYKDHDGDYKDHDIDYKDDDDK
Procedure: In brief, immortalized MEF-DKO-EV control cells, MEF-DKO-hiR2-FL-WT-FLAG cells and MEF-DKO-miR2-FL-WT-FLAG cells were harvested with 10 mM EDTA in PBS, washed and resuspended in FACS buffer (PBS, 3% FBS, 0.05% sodium azide), and seeded in Nunc U-bottom 96-well plates (Thermo Fisher Scientific, USA) at approximately 3×10⁵ cells per well. To pellet cells and remove supernatants, the plates were centrifuged at 1,500 rpm and 4° C. for 3 minutes. For primary staining, cells were resuspended in 100 μl per well of either FACS buffer alone (controls), mouse monoclonal anti-FLAG IgG (Sigma-Aldrich, USA) at 3 μg/ml FACS buffer or the antibodies of the present disclosure also at 3 μg/ml FACS buffer and incubated on ice for 1 hour. Afterwards, plates were centrifuged at 1,500 rpm and 4° C. for 3 minutes and washed twice with 200 μl per well of FACS buffer. For secondary staining, cells were spun down and resuspended in 100 μl per well of PE-conjugated goat anti-mouse IgG F(ab′)2 detection fragment (Dianova, Germany) diluted 1:100 in FACS buffer. Protected from light, the cell suspensions were incubated on ice for 1 hour. Plates were then centrifuged at 1,500 rpm and 4° C. for 3 minutes and washed three times with 200 μl per well of FACS buffer. Finally, cells were resuspended in 150 μl per well of FACS buffer and analyzed using a BD Accuri™ C6 Plus flow cytometer (Becton Dickinson, Germany).

B1: antibody 34 (antibody, V domains shown)
VH: QVTLKESGPGILQPSQTLSLTCSFSGFSLSTFSLGVGWIRQSSGKGLEWLAHIWWDDEKYYNPALKSRLTISKDTSKNQVFLKIANVDAADTATYYCARAYYSKSYYALDYWGQGTSVTVSS
VL: DIQMTQSPSSLSASLGERVSLTCRASQEISGYLSWLQQKPDGTIKRLIYAASTLDSGVPKRFSGSRSGSDYSLAISSLESEDFADYYCLQYANFPFTFGSGTKLEIK
notes: Mouse IgG, kappa light chain; also called clone #34; m34
Question: Which results are given for B1?
Answer: grade of loss of binding vs wild type [1]: 3 grade (3 => 95% loss of binding vs wild type); binding result [2]: no binding (tested: 3 µg/ml)

B2: antibody 50 (antibody, V domains shown)
VH: QVQLQQSGAELVRPGASVKVSCKASGYAFSNYLIEWVKQRPGQGLEWIGVINPGSGFTKYNEKFKGKATLTADKSSSTAYMQLSSLTSEDSAVYFCARGLYRAMDYWGQGTSVTVSS
VL: DIQMTQSPASQSASLGESVTITCLASQTIGTWLAWYQQKPGKSPQLLIYAAASLADGVPSRFSGGGSGTKFSFKISSLQAEDFVNYYCQQIYSTPYTFGGGTKLEIK
notes: Mouse IgG, kappa light chain; also called clone #50; purified antibody 50
Question: Which “grade of loss of binding vs wild type” value [1] does the source give for B2 here?
Answer: 3 grade (3 => 95% loss of binding vs wild type)

Question: Does B2 bind [2]?
Answer: no binding (tested: 3 µg/ml)
